Measurements published in patent US20160264649A1.

Assays:
Experiment in all cases: cell-based or functional assay
[1] = molecular target: HIV-1 NL43 Env (HIV-1)
[2] = molecular target: HIV-1 MGRM-C-006 Env on pseudovirus (HIV-1)
[3] = molecular target: HIV-1 MGRM-AG-013 Env (HIV-1)
[4] = molecular target: HIV-1 APV-6 Env (HIV-1)
[5] = molecular target: HIV-1 MGRM-C-004 Env on pseudovirus (HIV-1)
[6] = molecular target: HIV-1 MGRM-C-005 Env on pseudovirus (HIV-1)
[7] = molecular target: HIV-1 MGRM-Chronic-B-008 Env on pseudovirus (HIV-1)
[8] = molecular target: HIV-1 MGRM-F1-020 Env (HIV-1)
[9] = molecular target: HIV-1 MGRM-D-021 Env (HIV-1)
[10] = molecular target: HIV-1 MGRM-AG-012 Env (HIV-1)
[11] = molecular target: HIV-1 MGRM-G-006 Env (HIV-1)
[12] = molecular target: HIV-1 MGRM-D-022 Env (HIV-1)
[13] = molecular target: aMLV envelope (negative control pseudovirus)
[14] = molecular target: HIV-1 MGRM-G-017 Env (HIV-1)
[15] = molecular target: HIV-1 92UG005 Env (HIV-1)
[16] = molecular target: HIV-1 MGRM-G-016 Env (HIV-1)
[17] = molecular target: HIV-1 6535.3 (Acute) Env on pseudovirus (HIV-1)
[18] = molecular target: HIV-1 MGRM-D-008 Env (HIV-1)
[19] = molecular target: HIV-1 MGRM-AE-004 Env (HIV-1)
[20] = molecular target: HIV-1 MGRM-F1-004 Env (HIV-1)
[21] = molecular target: HIV-1 98IN022 Env on pseudovirus (HIV-1)
[22] = molecular target: HIV-1 MGRM-G-028 Env (HIV-1)
[23] = molecular target: HIV-1 APV_17 Env on pseudovirus (HIV-1)
[24] = molecular target: HIV-1 MGRM-D-020 Env (HIV-1)
[25] = molecular target: HIV-1 JRFL Env on pseudovirus (HIV-1)
[26] = molecular target: HIV-1 LAVIC_18 Env on pseudovirus (HIV-1)
[27] = molecular target: HIV-1 MGRM-D-005 Env (HIV-1)
[28] = molecular target: HIV-1 92UG037 Env (HIV-1)
[29] = molecular target: HIV-1 92RW008 Env (HIV-1)
[30] = molecular target: HIV-1 MGRM-A-013 Env (HIV-1)
[31] = molecular target: HIV-1 92RW021 Env (HIV-1)
[32] = molecular target: HIV-1 92RW009 Env (HIV-1)
[33] = molecular target: HIV-1 MGRM-A-007 Env (HIV-1)
[34] = molecular target: HIV-1 94UG103 Env (HIV-1)
[35] = molecular target: HIV-1 MGRM-A-010 Env (HIV-1)
[36] = molecular target: HIV-1 MGRM-A-004 Env (HIV-1)
[37] = molecular target: HIV-1 MGRM-A-003 Env (HIV-1)
[38] = molecular target: HIV-1 93UG077 Env (HIV-1)
[39] = molecular target: HIV-1 94KE105 Env (HIV-1)
[40] = molecular target: HIV-1 92RW026 Env (HIV-1)
[41] = molecular target: HIV-1 MGRM-A-009 Env (HIV-1)
[42] = molecular target: HIV-1 92UG031 Env (HIV-1)
[43] = molecular target: HIV-1 MGRM-A-002 Env (HIV-1)
[44] = molecular target: HIV-1 MGRM-A-011 Env (HIV-1)
[45] = molecular target: HIV-1 MGRM-A-012 Env (HIV-1)
[46] = molecular target: HIV-1 MGRM-A-005 Env (HIV-1)
[47] = molecular target: HIV-1 MGRM-A-014 Env (HIV-1)
[48] = molecular target: HIV-1 VLGCA1 Env (HIV-1)
[49] = molecular target: HIV-1 MGRM-A-001 Env (HIV-1)
[50] = molecular target: HIV-1 MGRM-A-008 Env (HIV-1)
[51] = molecular target: HIV-1 93RW029 Env (HIV-1)
[52] = molecular target: HIV-1 92RW024 Env (HIV-1)
[53] = molecular target: HIV-1 MGRM-A-006 Env (HIV-1)
[54] = molecular target: HIV-1 92RW020 Env (HIV-1)

1443_C16 (PG16) (TCN-116) (antibody), sequence (VH): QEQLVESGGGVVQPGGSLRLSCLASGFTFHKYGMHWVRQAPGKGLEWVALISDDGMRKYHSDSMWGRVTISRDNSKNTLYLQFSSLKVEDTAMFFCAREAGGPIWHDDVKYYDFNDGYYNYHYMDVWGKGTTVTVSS
1443_C16 (PG16) (TCN-116) (antibody), sequence (VL): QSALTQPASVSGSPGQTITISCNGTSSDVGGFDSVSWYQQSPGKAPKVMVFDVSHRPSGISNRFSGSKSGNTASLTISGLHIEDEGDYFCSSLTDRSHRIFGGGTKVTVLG

With 1443_C16 (PG16) (TCN-116) (antibody) the neutralization IC50 [1] was less than 0.0025 mg/L, the neutralization IC90 [1] was greater than 50 mg/L and the IC50 [2] was 2.62 mg/L. It also gave an IC50 (µg/ml), pseudovirus neutralization [3] of 0.31 µg/mL, a neutralization IC50 [4] of 0.08 mg/L and a neutralization IC90 [4] of 44.3 mg/L. It also gave an IC50 [5] of 5.09 mg/L, an IC50 [6] of 2.55 mg/L and an IC50 [7] of 0.73 mg/L. The IC50 (pseudovirus neutralization) [8] was 4.35 mg/L, the IC50 (µg/ml), pseudovirus neutralization [9] was greater than 50 µg/mL and the IC50 (µg/ml), pseudovirus neutralization [10] was 25.1 µg/mL. It also gave an IC50 (µg/ml), pseudovirus neutralization [11] of 2.42 µg/mL, an IC50 (µg/ml), pseudovirus neutralization [12] greater than 50 µg/mL and an IC50 (pseudovirus neutralization) [13] greater than 50 mg/L. The IC50 (µg/ml), pseudovirus neutralization [14] was 0.02 µg/mL, the IC50 (µg/ml), pseudovirus neutralization [15] was greater than 50 µg/mL and the neutralization IC50 [15] was greater than 50 mg/L. The neutralization IC90 [15] was greater than 50 mg/L, the IC50 (µg/ml), pseudovirus neutralization [16] was 11.3 µg/mL and the IC50 [17] was 36.9 mg/L. For the same substance, the IC50 (µg/ml), pseudovirus neutralization [18] was greater than 50 µg/mL, the IC50 (µg/ml), pseudovirus neutralization [19] was 0.002 µg/mL and the IC50 (pseudovirus neutralization) [20] was 0.43 mg/L. For the same substance, the IC50 [21] was 0.003 mg/L, the IC50 (µg/ml), pseudovirus neutralization [22] was 3.09 µg/mL and the IC50 [23] was 24.8 mg/L. The IC50 (µg/ml), pseudovirus neutralization [24] was 16.3 µg/mL, the IC50 [25] was greater than 50 mg/L and the IC50 [26] was 0.02 mg/L. For the same substance, the IC50 (µg/ml), pseudovirus neutralization [27] was 19.7 µg/mL, the neutralization IC50 [28] was 0.01 mg/L and the neutralization IC50 [29] was 0.002 mg/L. The neutralization IC50 [30] was 0.09 mg/L, the neutralization IC50 [31] was 0.11 mg/L and the neutralization IC50 [32] was 0.11 mg/L. The neutralization IC50 [33] was 5.91 mg/L, the neutralization IC50 [34] was 0.04 mg/L and the neutralization IC50 [35] was 0.004 mg/L. For the same substance, the neutralization IC50 [36] was 0.04 mg/L, the neutralization IC50 [37] was 2.65 mg/L and the neutralization IC50 [38] was greater than 50 mg/L. For the same substance, the neutralization IC50 [39] was 6.13 mg/L, the neutralization IC50 [40] was 0.03 mg/L and the neutralization IC50 [41] was 0.01 mg/L. It also gave a neutralization IC50 [42] of 0.43 mg/L, a neutralization IC50 [43] of 0.004 mg/L and a neutralization IC50 [44] of 0.24 mg/L. It also gave a neutralization IC50 [45] of 20.7 mg/L, a neutralization IC50 [46] of 0.09 mg/L and a neutralization IC50 [47] of 20.3 mg/L. For the same substance, the neutralization IC50 [48] was 0.18 mg/L, the neutralization IC50 [49] was greater than 50 mg/L and the neutralization IC50 [50] was greater than 50 mg/L. For the same substance, the neutralization IC50 [51] was 3.83 mg/L, the neutralization IC50 [52] was 0.08 mg/L and the neutralization IC50 [53] was greater than 50 mg/L. The neutralization IC50 [54] was 0.28 mg/L.
1495_C14 (PGC14) (antibody) showed a neutralization IC50 [1] of 0.373 mg/L, an IC50 [2] greater than 50 mg/L and an IC50 (µg/ml), pseudovirus neutralization [3] greater than 50 µg/mL. It also gave a neutralization IC50 [4] of 7.41 mg/L, an IC50 [5] greater than 50 mg/L and an IC50 [6] greater than 50 mg/L. It also gave an IC50 [7] greater than 50 mg/L, an IC50 (pseudovirus neutralization) [8] greater than 50 mg/L and an IC50 (µg/ml), pseudovirus neutralization [9] greater than 50 µg/mL. The IC50 (µg/ml), pseudovirus neutralization [10] was greater than 50 µg/mL, the IC50 (µg/ml), pseudovirus neutralization [11] was greater than 50 µg/mL and the IC50 (µg/ml), pseudovirus neutralization [12] was greater than 50 µg/mL. It also gave an IC50 (pseudovirus neutralization) [13] greater than 50 mg/L, an IC50 (µg/ml), pseudovirus neutralization [14] greater than 50 µg/mL and an IC50 (µg/ml), pseudovirus neutralization [15] greater than 50 µg/mL. For the same substance, the neutralization IC50 [15] was greater than 50 mg/L, the IC50 (µg/ml), pseudovirus neutralization [16] was greater than 50 µg/mL and the IC50 [17] was 35 mg/L. For the same substance, the IC50 (µg/ml), pseudovirus neutralization [18] was greater than 50 µg/mL, the IC50 (µg/ml), pseudovirus neutralization [19] was greater than 50 µg/mL and the IC50 (pseudovirus neutralization) [20] was greater than 50 mg/L. It also gave an IC50 [21] of 9 mg/L, an IC50 (µg/ml), pseudovirus neutralization [22] greater than 50 µg/mL and an IC50 [23] greater than 50 mg/L. It also gave an IC50 (µg/ml), pseudovirus neutralization [24] greater than 50 µg/mL, an IC50 [25] greater than 50 mg/L and an IC50 [26] greater than 50 mg/L. The IC50 (µg/ml), pseudovirus neutralization [27] was greater than 50 µg/mL, the neutralization IC50 [28] was greater than 50 mg/L and the neutralization IC50 [29] was 37 mg/L. The neutralization IC50 [30] was greater than 50 mg/L, the neutralization IC50 [31] was greater than 50 mg/L and the neutralization IC50 [32] was greater than 50 mg/L. The neutralization IC50 [33] was greater than 50 mg/L, the neutralization IC50 [34] was greater than 50 mg/L and the neutralization IC50 [35] was greater than 50 mg/L. The neutralization IC50 [36] was greater than 50 mg/L, the neutralization IC50 [37] was greater than 50 mg/L and the neutralization IC50 [38] was greater than 50 mg/L. It also gave a neutralization IC50 [39] greater than 50 mg/L, a neutralization IC50 [40] greater than 50 mg/L and a neutralization IC50 [41] greater than 50 mg/L. It also gave a neutralization IC50 [42] greater than 50 mg/L, a neutralization IC50 [43] greater than 50 mg/L and a neutralization IC50 [44] greater than 50 mg/L. The neutralization IC50 [45] was greater than 50 mg/L, the neutralization IC50 [46] was greater than 50 mg/L and the neutralization IC50 [47] was greater than 50 mg/L. For the same substance, the neutralization IC50 [48] was greater than 50 mg/L, the neutralization IC50 [49] was greater than 50 mg/L and the neutralization IC50 [50] was greater than 50 mg/L. The neutralization IC50 [51] was 42 mg/L, the neutralization IC50 [52] was greater than 50 mg/L and the neutralization IC50 [53] was greater than 50 mg/L. It also gave a neutralization IC50 [54] of 46 mg/L.
